B1: Cullin-1 (Arabidopsis thaliana (Mouse-ear cress)), Q94AH6 (parent)
chain: MERKTIDLEQGWDYMQTGITKLKRILEGLNEPAFDSEQYMMLYTTIYNMCTQKPPHDYSQQLYDKYREAFEEYINSTVLPALREKHDEFMLRELFKRWSNHKVMVRWLSRFFYYLDRYFIARRSLPPLNEVGLTCFRDLVYNELHSKVKQAVIALVDKEREGEQIDRALLKNVLDIYVEIGMGQMERYEEDFESFMLQDTSSYYSRKASSWIQEDSCPDYMLKSEECLKKERERVAHYLHSSSEPKLVEKVQHELLVVFASQLLEKEHSGCRALLRDDKVDDLSRMYRLYHKILRGLEPVANIFKQHVTAEGNALVQQAEDTATNQVANTASVQEQVLIRKVIELHDKYMVYVTECFQNHTLFHKALKEAFEIFCNKTVAGSSSAELLATFCDNILKKGGSEKLSDEAIEDTLEKVVKLLAYISDKDLFAEFYRKKLARRLLFDRSANDDHERSILTKLKQQCGGQFTSKMEGMVTDLTLARENQNSFEDYLGSNPAANPGIDLTVTVLTTGFWPSYKSFDINLPSEMIKCVEVFKGFYETKTKHRKLTWIYSLGTCHINGKFDQKAIELIVSTYQAAVLLLFNTTDKLSYTEILAQLNLSHEDLVRLLHSLSCAKYKILLKEPNTKTVSQNDAFEFNSKFTDRMRRIKIPLPPVDERKKVVEDVDKDRRYAIDAAIVRIMKSRKVLGHQQLVSECVEQLSRMFKPDIKAIKKRMEDLITRDYLERDKENPNMFRYLA

Columns and labels:
[1] = variants of: B1; details: with skp1a_arath SKP1A
iaa7_arath IAA7, Q38825 = variants of: B1; details: with iaa7_arath IAA7, Q38825
iaa7_arath IAA7, Q38825, sequence (Q38825 whole entry): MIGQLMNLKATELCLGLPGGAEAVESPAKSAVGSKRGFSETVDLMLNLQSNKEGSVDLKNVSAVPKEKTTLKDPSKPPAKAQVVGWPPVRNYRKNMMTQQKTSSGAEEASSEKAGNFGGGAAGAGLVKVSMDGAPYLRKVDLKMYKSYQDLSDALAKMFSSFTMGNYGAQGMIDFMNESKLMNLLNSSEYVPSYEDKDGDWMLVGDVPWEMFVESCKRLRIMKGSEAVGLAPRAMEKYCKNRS

effect of a mutation on the interaction [1] | effect of a mutation on the interaction (iaa7_arath IAA7, Q38825) | Variant
decreasing interaction | decreasing interaction | F112V
decreasing interaction | decreasing interaction | F112I

Source: IntAct's records for PubMed 12839993
